Experimental data reported in patent publication US20150203579A1 (Regeneron, published 2015).

T1: recombinant cynomolgus monkey PD-1 expressed with a C-terminal myc-myc-hexahistidine tag (cynomolgus monkey (Macaca fascicularis))
T1 construct: monomeric; also called MfPD-1-MMH
T1 chain: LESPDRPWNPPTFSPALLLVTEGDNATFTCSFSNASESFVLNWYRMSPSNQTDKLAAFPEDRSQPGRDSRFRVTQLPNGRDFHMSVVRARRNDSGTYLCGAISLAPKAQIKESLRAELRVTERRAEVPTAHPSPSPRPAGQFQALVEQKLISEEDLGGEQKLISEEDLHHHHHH


Legend:
[1] = biological target: T2, recombinant human PD-1 expressed with a C-terminal myc-myc-hexahistidine tag (human); assay: SPR, mAb captured, 37C;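 also: rate constants from fitting sensorgrams to a 1:1 binding model, KD derived as kd divided by ka and half-life as ln2/(60·kd)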
T2 construct: monomeric; also called hPD-1-MMH; human PD-1-MMH

[2] = biological target: T3, human PD-1 dimer (human PD-1-mFc or human PD-1-hFc) (human, UniProt Q15116 25-170); assay: SPR, mAb captured, 25C;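 also: surface plasmon resonance on Biacore, PD-1 flowed over captured anti-PD-1 antibodies, rate constants from a 1:1 binding model fit, KD taken as kd/ka and t½ as ln2/(60·kd)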
T3 construct: also called hPD-1-mFc; hPD1-hFc

[3] = biological target: T3, human PD-1 dimer (human PD-1-mFc or …); assay: SPR, mAb captured, 37C
[4] = biological target: T1, recombinant cynomolgus monkey PD-1 …; assay: SPR, mAb captured, 25C;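 also: rates from fitting Biacore data for PD-1 binding to anti-PD-1 antibodies with a 1:1 model, KD computed as koff/kon and t½ as ln2/(60·koff)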
[5] = biological target: T1, recombinant cynomolgus monkey PD-1 …; assay: SPR, mAb captured, 37C

T3 sequence (Q15116 25-170 C93S): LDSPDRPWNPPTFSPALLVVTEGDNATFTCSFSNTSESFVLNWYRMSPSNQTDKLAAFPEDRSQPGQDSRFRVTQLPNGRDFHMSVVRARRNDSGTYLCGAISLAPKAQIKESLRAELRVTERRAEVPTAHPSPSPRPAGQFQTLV

Binder	Kd [1]	koff [1]	kon [1]	t½ [1]	Kd [2]	koff [2]	kon [2]	t½ [2]	Kd [3]	koff [3]	kon [3]	t½ [3]	Kd [4]	koff [4]	kon [4]	t½ [4]	Kd [5]	koff [5]	kon [5]	t½ [5]
H2aM7798N (antibody, mouse IgG2a, V domains shown, Human variable regions, mouse IgG2a Fc; also called H2M7798N) VH: EVQLLESGGVLVQPGGSLRLSCAASGFTFSNFGMTWVRQAPGKGLEWVSGISGGGRDTYFADSVKGRFTISRDNSKNTLYLQMNSLKGEDTAVYYCVKWGNIYFDYWGQGTLVTVSS VL: DIQMTQSPSSLSASVGDSITITCRASLSINTFLNWYQQKPGKAPNLLIYAASSLHGGVPSRFSGSGSGTDFTLTIRTLQPEDFATYYCQQSSNTPFTFGPGTVVDFR	3.79 nM	0.000656 s⁻¹	173000 M⁻¹ s⁻¹	18 min	0.0655 nM	2.29e-05 s⁻¹	350000 M⁻¹ s⁻¹	505 min	0.028 nM	1.4e-05 s⁻¹	490000 M⁻¹ s⁻¹	825 min	4.5 nM	0.000393 s⁻¹	87200 M⁻¹ s⁻¹	29 min	7 nM	0.000993 s⁻¹	142000 M⁻¹ s⁻¹	12 min
H2aM7791N (antibody, mouse IgG2a, V domains shown, Human variable regions, mouse IgG2a Fc; also called H2M7791N) VH: QMQLQQWGAGLLKPSETLSLTCVVYGGSLNGYYWSWIRQSPGKGLEWIGEIDHSGSTNYNPSLKNRVTMSVDTSKIQFSLKLTSVTVADTAVYYCAREGLLPFDYWGQGTLVTVSS VL: EIVLTQSPGTLSLSPGERVTLSCRASQSVYSNYLAWYQQNPGQAPRLLIYAASNRATGIPDRFSGSGSGTDFTLTISRLEPEDFAVYYCHQYATSPWTFGQGTKVEIK	53.5 nM	0.00224 s⁻¹	41800 M⁻¹ s⁻¹	5.2 min	2.49 nM	0.000101 s⁻¹	40500 M⁻¹ s⁻¹	114 min	3.59 nM	0.000179 s⁻¹	49800 M⁻¹ s⁻¹	65 min	34.4 nM	0.000553 s⁻¹	16100 M⁻¹ s⁻¹	21 min	50.5 nM	0.00191 s⁻¹	37900 M⁻¹ s⁻¹	6 min
H4xH9034P (antibody, V domains shown, Human IgG4 Fc with 2 or more amino acid changes as disclosed in US20100331527 (H4xH); also called H4xH9034P2) VH: EVQLVESGGGVVRPGGSLRLSCTASGFTFDDYGMSWVRQAPGKGLEWISGIGWTGGRSSYADSVRGRFTISRDNAKNSLYLQMNSLGAEDTALYYCARDRQWLVQWYFDYWGQGTLVTVSS VL: not shown	40.2 nM	0.0112 s⁻¹	279000 M⁻¹ s⁻¹	1 min	0.701 nM	0.000151 s⁻¹	215000 M⁻¹ s⁻¹	77 min	2.09 nM	0.00063 s⁻¹	302000 M⁻¹ s⁻¹	18 min	28 nM	0.00269 s⁻¹	96100 M⁻¹ s⁻¹	4.3 min	87.3 nM	0.0247 s⁻¹	283000 M⁻¹ s⁻¹	0.5 min
H1M7789N (antibody, mouse IgG1, V domains shown, Human variable regions, mouse IgG1 Fc) VH: EVQLLESGGGLVQPGGSLRLSCSASGFTFSSYTMNWVRQAPGKGLEWVSGISDTGGNTYYTDSVKGRFTVSRDNSKNTLSLQMNSLRAEDTAVYYCAKDQGGSYPYYFHYWGQGSLVTVSS VL: DIQMTQSPSSLSASVGDRVTITCRASQSISSYLIWYQQKPGTAPKFLIYAASSLQSGVPSRFSGCGSGTDFTLTISSLQPEDFATYYCQQSYSTPPITFGQGTRLEIK	6.52 nM	0.000295 s⁻¹	45300 M⁻¹ s⁻¹	39 min	1.1 nM	4.31e-05 s⁻¹	39100 M⁻¹ s⁻¹	268 min	≤ 0.0917 nM	≤ 1e-05 s⁻¹	109000 M⁻¹ s⁻¹	≥ 1160 min	7.89 nM	0.000123 s⁻¹	15500 M⁻¹ s⁻¹	94 min	8.5 nM	0.000408 s⁻¹	47900 M⁻¹ s⁻¹	28 min
H1M7799N (antibody, mouse IgG1, V domains shown, Human variable regions, mouse IgG1 Fc) VH: EVQLVESGGGLVQPGGSLRLSCAASGFTVSNNYMSWVRQAPGKGLEWVSVIYSGGFTYYTDSVKGRFTISRHNSKNTLYLQMNSLRAEDTAVYYCARYYYDTSDYWTFFDYWGQGTLVTVSS VL: EIVMTQSPATLSVSPGERATLSCRASQSVSSNLAWYQQKPGQAPRLLIYGASTRATGIPARFSGSGSGTEFTLTISSLQSGDFAVYYCQQYNNWPLTFGGGTKVEIN	536 nM	0.0425 s⁻¹	79400 M⁻¹ s⁻¹	0.3 min	0.36 nM	8.55e-05 s⁻¹	238000 M⁻¹ s⁻¹	135 min	0.411 nM	0.000181 s⁻¹	441000 M⁻¹ s⁻¹	64 min	224 nM	0.013 s⁻¹	57800 M⁻¹ s⁻¹	0.9 min	530 nM	0.0467 s⁻¹	88000 M⁻¹ s⁻¹	0.2 min
H1M7800N (antibody, mouse IgG1, V domains shown, Human variable regions, mouse IgG1 Fc) VH: EVQLVESGGGLVQPGGSLRLSCAASGFTVSNNYMSWVRQAPGKGLEWVSVIYSGGFTYYTDSVKGRFTISRHNSKNTLYLQMNSLRAEDTAVYYCARYYYDTSDYWTFFDYWGQGTLVTVSS VL: EIVMTQSPATLSVSPGERATLSCRASQSVSSNLAWYQQKPGQAPRLLIYGASTRATGIPARFSGSGSGTEFTLTISSLQSGDFAVYYCQQYNNWPLTFGGGTKVEIN	510 nM	0.0399 s⁻¹	78300 M⁻¹ s⁻¹	0.3 min	0.509 nM	7.72e-05 s⁻¹	152000 M⁻¹ s⁻¹	150 min	0.45 nM	0.000181 s⁻¹	400000 M⁻¹ s⁻¹	64 min	176 nM	0.0104 s⁻¹	58900 M⁻¹ s⁻¹	1.1 min	527 nM	0.0443 s⁻¹	84000 M⁻¹ s⁻¹	0.3 min
H2aM7788N (antibody, mouse IgG2a, V domains shown, Human variable regions, mouse IgG2a Fc; also called H2M7788N) VH: EVQLVESGGGLVQPGGSLRLSCGASGFTFRNYDMHWVRQITGKGLEWVSAIGSAGDTYYPDSVKGRFTISRENAKNSLYLQMNSLRVGDTAVYYCTRDIHCSSTRCYGMDVWGQGTTVTVSS VL: not shown	51.9 nM	0.00149 s⁻¹	28800 M⁻¹ s⁻¹	7.7 min	0.315 nM	2.82e-05 s⁻¹	89400 M⁻¹ s⁻¹	410 min	0.163 nM	2.13e-05 s⁻¹	131000 M⁻¹ s⁻¹	542 min	76.6 nM	0.000662 s⁻¹	8630 M⁻¹ s⁻¹	17 min	174 nM	0.00328 s⁻¹	18800 M⁻¹ s⁻¹	3.5 min
H2aM7795N (antibody, mouse IgG2a, V domains shown, Human variable regions, mouse IgG2a Fc; also called H2M7795N) VH: EVQVVESGGGLVEPGRSLRLSCKASGFTFDDYAMHWVRQTPGKALEWVSGINWSGNNIGYADSVKGRFTISKDDAKNSLYLQMNSLRPEDTALYYCTKDISITGTLDAFDVWGQGTMVTVSS VL: DIQMTQSPISVSASVGDRVTITCRASQGISNWLAWYQQKPGIAPKLLIYSASSLQSGVPSRFRGSGSGTDFTLTIGSLQPEDFATYYCQQAHSFPLTFGGGTKVEIK	67.8 nM	0.00458 s⁻¹	67500 M⁻¹ s⁻¹	2.5 min	0.227 nM	3.14e-05 s⁻¹	138000 M⁻¹ s⁻¹	368 min	0.371 nM	6.13e-05 s⁻¹	165000 M⁻¹ s⁻¹	188 min	20.1 nM	0.000889 s⁻¹	44400 M⁻¹ s⁻¹	13 min	60.2 nM	0.00389 s⁻¹	64700 M⁻¹ s⁻¹	3 min
H4H9019P (antibody, human IgG4, V domains shown, Fully human; H4H prefix (human IgG4 Fc)) VH: EVQLVESGGGVVRPGGSLRLSCAASGFTFDDYGMSWVRQVPGKGLEWVSGISWNDGKTVYAESVKGRFIISRDNAKNSLYLEMNSLRAEDTALYYCARDWQYLIERYFDYWGQGTLVTVSS VL: not shown	453 nM	–	–	2.1 min	1.97 nM	–	–	134 min	2.71 nM	–	–	59 min	42.9 nM	–	–	–	356 nM	–	–	1.5 min
H4xH9035P (antibody, V domains shown, Human IgG4 Fc with 2 or more amino acid changes (H4xH); also called H4xH9035P2) VH: EVQLVESGGRVVRPGGSLRLSCAASGFTFDDYGMSWVRQLPGKGLEWVAGISWNDGKTVYAESVKGRFIISRDNAKNSLHLEMNSLRAEDTALYYCARDWQYLIDRYFDFWGQGTLVTVSS VL: not shown	14.3 nM	0.00426 s⁻¹	298000 M⁻¹ s⁻¹	2.7 min	0.513 nM	0.000103 s⁻¹	201000 M⁻¹ s⁻¹	112 min	1.75 nM	0.000554 s⁻¹	316000 M⁻¹ s⁻¹	21 min	4.64 nM	0.000434 s⁻¹	93600 M⁻¹ s⁻¹	27 min	14 nM	0.00429 s⁻¹	306000 M⁻¹ s⁻¹	2.7 min
H2aM7794N (antibody, V domains shown, Human variable regions, mouse IgG2a Fc; also called H2M7794N) VH: QLQLQESGPDLVKPSDTLSLTCTVSDDSISSTTYYWAWIRQPPGKGLEWIGSMSYNGNNYYNPSLKSRVAISAGTSQKQFSLKLTSVTAADTAVYHCARHLGYNGNWYPFDFWGQGILVTVSS VL: not shown	66.1 nM	0.00792 s⁻¹	120000 M⁻¹ s⁻¹	1.5 min	0.593 nM	0.000106 s⁻¹	179000 M⁻¹ s⁻¹	109 min	0.452 nM	0.000211 s⁻¹	468000 M⁻¹ s⁻¹	55 min	166 nM	0.00599 s⁻¹	36000 M⁻¹ s⁻¹	1.9 min	302 nM	0.0201 s⁻¹	66600 M⁻¹ s⁻¹	0.6 min
